# Assay results reported in PMC6598307, “Directed evolution of a genetically encoded immobilized lipase for the efficient production of biodiesel from waste cooking oil” (Biotechnology for Biofuels, 2019).
# B1: Proteus mirabilis lipase (PML), soluble (Proteus mirabilis HI4320) (protein)
# chain: MSTKYPIVLVHGLAGFNEIVGFPYFYGIADALRQDGHQVFTASLSAFNSNEVRGKQLWQFVQTLLQETQAKKVNFIGHSQGPLACRYVAANYPDSVASVTSINGVNHGSEIADLYRRIMRKDSIPEYIVEKVLNAFGTIISTFSGHRGDPQDAIAALESLTTEQVTEFNNKYPQALPKTPGGEGDEIVNGVHYYCFGSYIQGLIAGEKGNLLDPTHAAMRVLNTFFTEKQNDGLVGRSSMRLGKLIKDDYAQDHIDMVNQVAGLVGYNEDIVAIYTQHAKYLASKQL
# notes: full-length PML gene in pET28b (NdeI/XhoI), N-terminal His-tag; no signal peptide needed; E. coli BL21(DE3)
# Substrate: CCCCCCCCCCCCCCCC(=O)Oc1ccc([N+](=O)[O-])cc1
# Assay: purified protein
# Format: biochemical, Proteus mirabilis
# Details: soluble free enzyme, 0.1 M NaH2PO4 pH 7.0, 25 °C, 1 nM enzyme, pNPP 0-2.25 mM, pNPP stock in MeCN:Triton X-100 1:1
protein,measurement,value
B1,Km,1770 ± 330 µM
same,kcat,112 ± 12 s⁻¹
same,kcat/Km,63200 ± 210 M⁻¹ s⁻¹
